Data as given in US20060045881A1 (University of Texas, published 2006).

Columns and labels:
[1] = target: T1, HLA-A2.1 heavy chain with I125-labeled beta2-microglobulin (heterotrimer complex assay) (human, I125-labeled); experiment: dissociation of I125-labeled beta2-microglobulin from heavy chain/peptide/beta2m complex, HPLC gel filtration
T1 construct: Cell-free assay; also called heterotrimer complex of the HLA-A2.1 heavy chain, peptide, and beta2-microglobulin

[2] = target: T2, HLA-A2.1 (HLA-A*0201) on the surface of T2 cells (human)
T2 construct: also called surface HLA-A2.1 on T2

| Binder | T1/2 (binding half-life) [1] [h] | FI CCNE2144-152/FI PR1 (fluorescence ratio against PR1) [2] [ratio] |
| --- | --- | --- |
| RLFPDFFTRV [PR2 peptide (proteinase 3 derived, RLFPDFFTRV as printed in Table 4)] | 2.33 | – |
| ILLDWLLEV (also called cyclin E2 peptide) [CCNE2 144-152 (cyclin E2 derived nonameric peptide)] | – | 1.19 |
| VLQELNVTV (Synthetic peptide, minimum 95% purity) [PR1 peptide (proteinase 3 aa 169-177, VLQELNVTV)] | 24.3 | – |
